Drawing on paper doi:10.1101/2024.05.23.595586, this text covers Kd for one substance.

In the experiment the target is TREM2 (a.a. 19-134), biotinylated, WT (human) (UniProt Q9NZC2). In words: BLI.
TREM2 (a.a. 19-134), biotinylated, WT (human), sequence (Q9NZC2 19-134): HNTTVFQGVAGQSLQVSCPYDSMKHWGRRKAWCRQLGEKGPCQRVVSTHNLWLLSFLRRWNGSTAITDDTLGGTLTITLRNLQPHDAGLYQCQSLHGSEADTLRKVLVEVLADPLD

“oligomeric amyloid beta 42 (oAβ42) WT (peptide)”: the Kd – broadly, the concentration at which binding is half-saturated – came to 42.5 nM.
